Results: the DeepSol protein solubility set

Experiment: soluble on expression in E. coli; label from the status in PepcDB or PDB records

Sequence | soluble on expression in E. coli
MAHHHHHHMRERKPIRKMKRSRVSDQIIRVEEPDAEEGEASPAKATPVPHFSDRRICINVGGEYITTLASTLCSEPSKFSEWVENNFQGLPRDSMGNPFIDRDPENFRQIISYLRGYELPTATEKIVFLAEDAEYYHIDRLLALINPPAEWRFVSGPGVSSSRKEFSTENILATCGNEPLPQVGKSVFLLRIDKCELVSIGLVGTESPDHDEPLERQTNAIAYRSTGELIRSLNSSSTFFSGNGYKGRDTVMVQVLFKPEGAAQIEFFCNDVKTHETEWLSPVPPLRFAVSLHGVSAVVIERCVAGVKDEDM | not soluble
MKEEAVRVIEEVLKQGRTAMVEYEAKQVLKAYGLPVPEEKLAKTLDEALEYAKEIGYPVVLKLMSPQILHKSDAKVVMLNIKNEEELKKKWEEIHENAKKYRPDAEILGVLVAPMLKPGREVIIGVTEDPQFGHAIMFGLGGIFVEILKDVTFRLVPITEKDARKMIQEIKAYPILAGARGEEPADIDAIVDMLLKVSKLVDDLKDYIKEMDLNPVFVYNKGEGAVIVDSRIILKPKD | soluble
MQILQVRLKNLNSLVGEWEIDFTDPAFVSDGIFSITGPTGAGKTTVLDAICLALYGRTPRLGKVSKSENEIMSRQTGECFAEVTFAAQSGCFRCHWSQHRAHKKPDGELQNPRHELAEADSGKILETRLTEVGRQIEKITGMDFARFTRSMLLAQGEFAAFLQAAPDERAPILEQITGTEIYSRISIRVHETRVSARRELDRLSAGLNGIQPLT | not soluble
MVDPPGNDDDHGDLDALDFSAAHTNEASPLDALDDYAPVQTDDAEGDLDALHALTERDEEPELELFTVTNPQGSVSVSTLMDGRIQHVELTDKATSMSEAQLADEIFVIADLARQKARASQYTFMVENIGELTDEDAEGSALLREFVGMTLNLPTPEEAAAAEAEVFATRYDVDYTSRYKADD | soluble
HNPLYTAHELESPFQDHGARVAIVWDKAADTLEKLRRNTPLETIVSVNMMTAMPAVQQALLRLPIPMIRKKRDALTASAPNTIPWEILVGSALGGNGDDIVPCPEVTKKSIALILYTSGTTGTPKGAQLSHGNLFANIMQGKAWVKGIGDQDER | not soluble
VFNSDAPLETTIKGMKTVMLGYDCRMSQQSPAYLERIVKDVKKYKKEDTLVIVNMHWGVEYRETPTNYQTQFGHAILDAGADIIMGAHPHRLESIEKYKDKYIVYSMGDFAFGADPTLLSRMTSMFQLRFTKEA | not soluble
MTSSPELARAVAATLARHVTDVVICPGSRNSPLSLELIARDDIRVHTRIDERSAAFLALGLARSSKRHVAVVTTSGTAVANCAPAMIEAAYSHTPLIMVSADRPERLHGTGANQTIEQRGIFNVVDTDHVVDITDLNSISFARNVIHINVALDVPLVDVLPEV | not soluble
MLSKITQELLKMNNVLLMRPDDSEFMIPDDWSGLNAKGITYEQDNRVTESFLPFKSFYCSPVCTTVELISQNNCFAMGIRYLLEKKRDLRLNHFKAFSHKCETKPDVLIMTGCTVADTYSIFSRIVEENIMKTMTPIVIITGHHSEDLCSLASKLGGVKIISPTEKIAKIENAINDAFNSKPKKIRFLTDILSPQQIETMKMVAQGRSVNEISAAMNISIKTVYAHKVRAINKLGIKKKVYEALFYKALIQFN | not soluble
MASEIHMTGPMCLIENTNGRLMANPEALKILSAITQPMVVVAIVGLYRTGKSYLMNKLAGKKKGFSLGSTVQSHTKGIWMWCVPHPKKPGHILVLLDTEGLGDVEKGDNQNDSWIFALAVLLSSTFVYNSIGTINQQAMDQLYYVTELTHRIRSKSSPDENENEVEDSADFVSFFPDFVWTLRDFSLDLEADGQPLTPDEYLTYSLKLKKGTSQKDETFNLPRLCIRKFFPKKKCFVFDRPVHRRKLAQLEKLQDEELDPEFVQQVADFCSYIFSNSKTKTLSGGIQVNGPRLESLVLTYVNAISSGDLPCMENAVLALAQIENSAAVQKAIAHYEQQMGQKVQLPTESLQELLDLHRDSEREAIEVFIRSSFKDVDHLFQKELAAQLEKKRDDFCKQNQEASSDRCSGLLQVIFSPLEEEVKAGIYSKPGGYRLFVQKLQDLKKKYYEEPRKGIQAEEILQTYLKSKESMTDAILQTDQTLTEKEKEIEVERVKAESAQASAKMLHEMQRKNEQMMEQKERSYQEHLKQLTEKMENDRVQLLKEQERTLALKLQEQEQLLKEGFQKESRIMKNEIQDLQTKMRRRKACTIS | soluble
